Laboratory results: patent publication US20030134779A1, “Method and composition for treatment and/or prevention of antibiotic-resistant microorganism infections” (priority 2002, published 2003)

What was measured:
Type in all cases: cell-based, Staphylococcus aureus
S. aureus SHY97-4320 = assay: Checkerboard MICs and FIC index, penicillin with bovine LF
Procedure: (§1) The MICs were determined by both macrodilution (1 ml/tube) and microdilution (100 μl/well) in sterile 96 well microtiter plates (International Nunc, Napierville, Ill.) techniques in three separate experiments according to the National Committee for Clinical Laboratory Standards (1992 and 1999) in three separate experiments. Serial 2-fold dilutions in MHB of LF, LFC, antibiotic or combination of LF or LFC with antibiotic were inoculated with an overnight culture at a final inoculum of 10^6 cfu/ml in MHB. Effect of LF combination with antibiotic on MICs were determined by adding 0.5 mg or 1 mg/ml of LF to each antibiotic dilution. The MIC was defined as the lowest concentration of drug (highest dilution) that caused a complete inhibition of bacterial growth after an incubation of 18 h. Effect of LF or LFC combination with antibiotic on MIC was also determined by checkerboard method using 96 well microtiter plates. Each antibiotic dilution (50 μl) was serially added to the wells in vertical rows starting from the top (lower dilution) to the bottom. Lactoferrin or LFC (50 μl) were added to 50 μl of each antibiotic dilution and serially diluted starting at the left (lower dilution) to the right. After inoculation, the final concentration of antibiotic from top to bottom were 32 to 8, 2 to 0.5, 0.5 to 0.125 μg/ml for penicillin, cefazolin and neomycin, respectively. From left to right, the concentration of LF or LFC were 25 to 0.0244 mg/ml or 256 to 0.5 μg/ml respectively in a final volume of 100 μl/well. The microplate's were incubated at 37° C. for 24 h. Bacterial growth was measured optically at 540 nm using Spectra Max 250 Microplate Spectrophotometer System of Molecular Device (Fisher Scientific, Ottawa, Canada). Tubes were incubated at 37° C. for 18 h and bacterial growth was measured by visual examination and optically at 540 nm using a spectrophotometer (Philips PU 8800; Pye Unican Ltd, Cambridge, UK). The fractional inhibitory concentration (FIC) was calculated as described by Eliopoulos and Moellering (1991).
(§2) FIC antibiotic A=MICantibiotic A (in the presence of antibiotic B)/MICantibiotic A alone. FIC Index=FICantibiotic A+FICantibiotic B
(§3) The effects of the antibiotics were considered to be synergistic or indifferent when FIC Index was<1 or>1, respectively.

S. aureus ATCC 25923 [1] = assay: as above
Procedure: as §1, §2, §3

S. aureus SHY97-3906 = assay: as above
Procedure: as §1, §2, §3

S. aureus PC-1 [2] = assay: as above
Procedure: as §1, §2, §3

S. aureus ATCC 25923 [3] = assay: Bacterial growth in MHB; conditions: LF alone, sub-MIC
Procedure: (§4) The effect of LF or LFC at concentration sub-MICs alone or in combination with sub-MICs of antibiotics on bacterial growth rate of S. aureus, E. coli and K. pneumoniae was determined by monitoring bacterial cultures in MHB with the O.D.600 nm or by the count of colony forming unit per ml (cfu/ml). A volume of 2.5 ml of overnight cultures in MHB adjusted to 0.5-1 McFarland standard in saline were used to inoculate a final volume of 25 ml of fresh MHB containing the desired concentration of tested compounds. All flasks were then incubated at 37° C. with agitation (200 rpm) for 9 h. Aliquots were removed every hour to determine the culture turbidity using the spectrophotometer Philips PU 8800 (Pye Unican Ltd, Cambridge, UK). The combined antibiotic effect on bacterial growth was also determined using concentrations of LF in the presence of different concentrations of antibiotics. Briefly, a volume of 3 ml of fresh MHB containing desired concentration of drugs was adjusted to an optical density of 0.4 at 540 nm after an overnight culture. The culture was then incubated at 37° C with agitation (200 rpm). After incubation, aliquots were removed to determine the culture turbidity (OD540nm) or cfu/ml. To determine the influence of the level of iron on of the growth inhibition by the test compound, 5 μM of FeCl3 were added to the media.

S. aureus PC-1 [4] = assay: Bacterial growth in MHB; conditions: LF or LFC alone, sub-MIC
Procedure: as §4

[5] = tested on: S. aureus strains ATCC 25923, SHY97-3906, −4242 and RFT-5; assay: Bacterial growth in MHB; conditions: LF alone, sub-MIC (9.1, 36.6, 250 or 500 μg/ml); 4, 8 and 18-h; except for strain SHY97-3906
Procedure: as §4

S. aureus = assay: Growth inhibition and influence of iron
Procedure: as §4

[6] = tested on: β-lactamase induction in S. aureus SHY97-4320; assay: Induction of β-lactamase after LF pre-incubation (signal transduction); conditions: LF 1 mg/ml added 30 or 60 min before 8 μg/ml penicillin G, 4 h
Procedure: As the β-lactamase system is the best-known signal transduction system in S. aureus. We tested the ability of LF to inhibit signal transduction in S. aureus SHY97-4320 which is an inducible beta-lactamase producing strain. Bacterial cells were first exposed during 30 or 60 min to LF in broth and were further treated with 8 μg/ml of penicillin G for an additional 4 h. The cfu/ml were determined, cells aliquots were centrifuged and pellets were suspended in 10 mM HEPES buffer (pH 7.4) as mentioned above. Nitrocefin (100 μM) was added to 20 μl of cells in a final volume of 200 μl. Hydrolysis was measured at 486 nm on a Spectra Max 250 Microplate Spectrophotometer System of Molecular Device (Fisher Scientific, Ottawa, Canada). β-Lactamase activity was expressed as ΔO.D.486 nm/min and corrected for bacterial OD.

[7] = in combination with penicillin, checkerboard

B1: LF: bovine lactoferrin, 80-kDa iron-binding glycoprotein found in milk (protein, UniProt P24627 20-708, looked up)
Lactotransferrin: APRKNVRWCTISQPEWFKCRRWQWRMKKLGAPSITCVRRAFALECIRAIAEKKADAVTLDGGMVFEAGRDPYKLRPVAAEIYGTKESPQTHYYAVAVVKKGSNFQLDQLQGRKSCHTGLGRSAGWIIPMGILRPYLSWTESLEPLQGAVAKFFSASCVPCIDRQAYPNLCQLCKGEGENQCACSSREPYFGYSGAFKCLQDGAGDVAFVKETTVFENLPEKADRDQYELLCLNNSRAPVDAFKECHLAQVPSHAVVARSVDGKEDLIWKLLSKAQEKFGKNKSRSFQLFGSPPGQRDLLFKDSALGFLRIPSKVDSALYLGSRYLTTLKNLRETAEEVKARYTRVVWCAVGPEEQKKCQQWSQQSGQNVTCATASTTDDCIVLVLKGEADALNLDGGYIYTAGKCGLVPVLAENRKSSKHSSLDCVLRPTEGYLAVAVVKKANEGLTWNSLKDKKSCHTAVDRTAGWNIPMGLIVNQTGSCAFDEFFSQSCAPGADPKSRLCALCAGDDQGLDKCVPNSKEKYYGYTGAFRCLAEDVGDVAFVKNDTVWENTNGESTADWAKNLNREDFRLLCLDGTRKPVTEAQSCHLAVAPNHAVVSRSDRAAHVKQVLLHQQALFGKNGKNCPDKFCLFKSETKNLLFNDNTECLAKLGGRPTYEEYLGTEYVTAIANLKKCSTSPLLEACAFLTR
Decrease (of MIC of LF) (S. aureus SHY97-4320; by combination with penicillin): 64 fold
MIC LF (S. aureus SHY97-4320; [7]): 390 µg/mL
Decrease (of MIC of LF) (S. aureus ATCC 25923 [1]; by combination with penicillin): 32 fold
MIC LF (S. aureus ATCC 25923 [1]; [7]): 780 µg/mL
Decrease (of MIC of LF) (S. aureus SHY97-3906; by combination with penicillin): 16 fold
MIC LF (S. aureus SHY97-3906; [7]): 1560 µg/mL
Decrease (of MIC of LF) (S. aureus PC-1 [2]; by combination with penicillin): 64 fold
MIC LF (S. aureus PC-1 [2]; [7]): 390 µg/mL
growth (S. aureus ATCC 25923 [3]): delayed growth
growth (S. aureus PC-1 [4]): delayed growth
growth [5]: did not affect the growth
effect of addition of 5 μM of FeCl3 on LF growth inhibitory activity (S. aureus): did not affect
growth inhibitory activity (S. aureus; bovine LF saturated to 16.2% of iron): demonstrated a growth inhibitory activity
induction of β-lactamase by penicillin G [6]: completely block induction of β-lactamase
